Results: PMC11067744

Target: YenB (UniProt B6A880)
Assay: SEC-MALS

UniProt B6A880, sequence (B6A880 whole entry): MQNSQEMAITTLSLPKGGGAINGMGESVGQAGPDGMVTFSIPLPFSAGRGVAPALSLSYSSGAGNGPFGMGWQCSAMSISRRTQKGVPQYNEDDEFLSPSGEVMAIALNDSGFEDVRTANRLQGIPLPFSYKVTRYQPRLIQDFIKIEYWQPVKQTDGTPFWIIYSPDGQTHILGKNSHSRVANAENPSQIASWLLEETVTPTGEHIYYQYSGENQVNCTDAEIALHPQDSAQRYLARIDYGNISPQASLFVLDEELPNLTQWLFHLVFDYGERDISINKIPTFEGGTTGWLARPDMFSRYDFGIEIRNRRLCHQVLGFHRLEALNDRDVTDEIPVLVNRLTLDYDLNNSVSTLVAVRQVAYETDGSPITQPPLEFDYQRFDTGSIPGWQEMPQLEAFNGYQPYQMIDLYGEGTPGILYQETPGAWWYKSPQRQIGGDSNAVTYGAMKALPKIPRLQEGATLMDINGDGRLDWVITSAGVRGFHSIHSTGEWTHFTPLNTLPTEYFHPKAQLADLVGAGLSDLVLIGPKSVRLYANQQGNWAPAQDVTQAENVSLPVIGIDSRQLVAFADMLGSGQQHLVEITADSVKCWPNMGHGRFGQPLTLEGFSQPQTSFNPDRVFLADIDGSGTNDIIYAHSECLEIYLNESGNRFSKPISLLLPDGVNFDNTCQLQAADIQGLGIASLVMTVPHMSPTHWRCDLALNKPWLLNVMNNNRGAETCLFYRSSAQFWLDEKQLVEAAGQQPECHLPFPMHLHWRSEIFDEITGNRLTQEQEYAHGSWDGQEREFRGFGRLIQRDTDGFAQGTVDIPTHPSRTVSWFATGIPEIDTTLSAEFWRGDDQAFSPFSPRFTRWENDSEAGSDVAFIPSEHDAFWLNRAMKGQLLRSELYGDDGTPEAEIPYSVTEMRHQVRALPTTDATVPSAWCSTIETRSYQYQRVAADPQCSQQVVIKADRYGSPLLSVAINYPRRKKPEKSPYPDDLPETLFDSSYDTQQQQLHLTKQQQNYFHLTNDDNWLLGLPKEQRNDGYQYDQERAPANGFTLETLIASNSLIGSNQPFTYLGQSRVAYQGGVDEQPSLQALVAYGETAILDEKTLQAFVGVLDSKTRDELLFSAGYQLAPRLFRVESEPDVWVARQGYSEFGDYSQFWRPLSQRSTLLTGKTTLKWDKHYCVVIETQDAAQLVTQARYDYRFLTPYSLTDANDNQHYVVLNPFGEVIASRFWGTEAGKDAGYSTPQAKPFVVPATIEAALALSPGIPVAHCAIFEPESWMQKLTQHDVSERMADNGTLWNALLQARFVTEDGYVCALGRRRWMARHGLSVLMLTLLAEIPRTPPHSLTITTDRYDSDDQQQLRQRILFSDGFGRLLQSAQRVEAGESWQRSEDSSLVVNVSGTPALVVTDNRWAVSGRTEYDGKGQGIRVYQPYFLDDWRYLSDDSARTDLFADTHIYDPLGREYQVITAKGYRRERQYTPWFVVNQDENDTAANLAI

Substance	stoichiometry N
YenC3^CTD (domain or fragment)	1
YenC3^NTD (domain or fragment)	1
